From article PMC3063405

Legend:
[1] = molecular target: T1, PUM2-HD (Pumilio-homology domain) (Homo sapiens, UniProt Q8TB72 706-1056); experiment: EMSA
[2] = molecular target: T2, PUM1-HD (Pumilio-homology domain) (Homo sapiens, UniProt Q14671 828-1176); experiment: EMSA
[3] = molecular target: T1, PUM2-HD (Pumilio-homology domain); experiment: crystal structure
[4] = molecular target: T2, PUM1-HD (Pumilio-homology domain); experiment: crystal structure

T2 sequence (Q14671 828-1176): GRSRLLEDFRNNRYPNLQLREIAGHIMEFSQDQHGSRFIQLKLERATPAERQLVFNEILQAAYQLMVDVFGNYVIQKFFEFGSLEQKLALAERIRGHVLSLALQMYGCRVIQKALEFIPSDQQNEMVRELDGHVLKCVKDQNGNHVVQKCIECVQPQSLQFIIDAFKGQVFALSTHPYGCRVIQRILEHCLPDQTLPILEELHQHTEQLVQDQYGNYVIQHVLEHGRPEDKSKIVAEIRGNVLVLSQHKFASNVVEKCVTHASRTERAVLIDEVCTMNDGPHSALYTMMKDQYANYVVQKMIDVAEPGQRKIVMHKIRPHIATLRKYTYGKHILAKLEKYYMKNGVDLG
T1 sequence (Q8TB72 706-1056): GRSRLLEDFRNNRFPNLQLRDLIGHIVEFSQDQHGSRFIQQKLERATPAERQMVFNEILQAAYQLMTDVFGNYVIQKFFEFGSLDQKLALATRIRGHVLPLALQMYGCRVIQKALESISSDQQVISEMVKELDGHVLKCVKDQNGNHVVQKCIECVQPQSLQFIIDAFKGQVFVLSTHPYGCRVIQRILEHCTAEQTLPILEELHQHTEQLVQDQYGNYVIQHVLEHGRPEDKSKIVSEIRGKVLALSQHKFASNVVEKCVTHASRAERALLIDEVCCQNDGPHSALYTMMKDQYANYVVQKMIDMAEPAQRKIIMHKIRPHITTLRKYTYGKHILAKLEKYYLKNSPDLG

Binder | Kd [1] [pM] | Kd [2] [pM] | binding result [3] | binding result [4]
UGUAAAUA (ssRNA) [p38α NREa] | 170 ± 20 | 910 ± 80 | – | –
UGUAGAUA (ssRNA) [p38α NREb] | 80 ± 10 | 630 ± 10 | – | –
UGUACAUC (ssRNA) [erk2 NRE] | – | – | binds | binds
UGUAUAUA (ssRNA) [hb NRE1] | 360 ± 20 | 400 ± 10 | – | –
UGUACAUA (ssRNA) [hb NRE2] | 70 ± 10 | 1010 ± 50 | – | –
